Data from PMC5712522 (Nature Communications, 2017).
Numbering of substitutions follows the chain as printed. Names and notes keep the numbering of the source.

Target: the molecule itself
Assay: SEC-MALS; Shodex KW404-4F column; 50 μg of protein; PBS pH 7.2

B1: LIMP-2 luminal domain H150A (domain or fragment, UniProt Q14108 28-431, looked up)
chain: VFQKAVDQSIEKKIVLRNGTEAFDSWEKPPLPVYTQFYFFNVTNPEEILRGETPRVEEVGPYTYRELRNKANIQFGDNGTTISAVSNKAYVFERDQSVGDPKIDLIRTLNIPVLTVIEWSQVAFLREIIEAMLKAYQQKLFVTHTVDELLWGYKDEILSLIHVFRPDISPYFGLFYEKNGTNDGDYVFLTGEDSYLNFTKIVEWNGKTSLDWWITDKCNMINGTDGDSFHPLITKDEVLYVFPSDFCRSVYITFSDYESVQGLPAFRYKVPAEILANTSDNAGFCIPEGNCLGSGVLNVSICKNGAPIIMSFPHFYQADERFVSAIEGMHPNQEDHETFVDINPLTGIILKAAKRFQINIYVKKLDDFVETGDIRTMVFPVMYLNESVHIDKETASRLKSMINT
notes: LIMP-2 (SCARB2), soluble luminal domain, residues 28–431, with H150A; also called dimerization-deficient mutant; source: Expi293F (HEK), purified in the same manner as the wild-type protein
binding result: binds

B2: LIMP-2 luminal domain H150A/F151D (domain or fragment, UniProt Q14108 28-431, looked up)
chain: B1 chain with F124D
notes: LIMP-2 (SCARB2), soluble luminal domain, residues 28–431, with H150A and F151D; also called dimerization-deficient mutant; source: Expi293F (HEK), purified in the same manner as the wild-type protein
binding result: binds
